Three molecules from article doi:10.1101/2025.11.13.687974 can be followed below.

The target in assay [1] is MBP-tagged chromoshadow domain (CSD) of wild-type HPL-2 (Caenorhabditis elegans). As to the kind of experiment: mass photometry.
Assay [2] deals with human HP1β chromoshadow domain (CSD) (human). As to the kind of experiment: mass photometry.
In assay [3] the target is biotinylated 12-mer H3K9me3 chromatin arrays (histone octamers with H3K9me3 on 12x200-601 DNA) (Xenopus laevis | not stated). The assay can be described thus: pull-down.

In the case of “MBP-tagged chromoshadow domain (CSD) of wild-type HPL-2 (domain or fragment)”, in assay [1], the percent dimers worked out at 67%, the percent monomers is 32% and the stoichiometry N was 2.

In assay [2], “human HP1β chromoshadow domain (CSD) (domain or fragment)” yielded a percent dimers of 97% and a stoichiometry N of 2.

B1: C. elegans HPL-2, wild-type recombinant protein (natural protein)
chain: MSSKSTKRAKIEDPKDNVFMVEKVLDKRTGKAGRDEFLIQWQGFPESDSSWEPRENLQCVEMLDEFEREFSKREKPIRKRHSQKPEPSEDQADPEEDKDEKKETNQNDKFSLEGKQLKCIVGLTKGPGELHFLCKFSDDTARLLPAKEVNSRYPSQVIRYYESKLTIQDPKADEL
Take B1: the fold enrichment on H3K9me3 arrays relative to unmodified arrays in assay [3] was 3 fold.

As usually defined, the stoichiometry N is the number of molecules, sites or subunits per partner or assembly.
